Drawing on publication PMC6853222, this text covers stoichiometry N for 2 substances.

What is called stoichiometry N is a count of units in the complex or per binding partner.

Assay [1] deals with GII.11 porNoV VA34 P protein (GII.11 porcine norovirus VA34). The assay can be described thus: crystal structure; VA34 P protein, native; hanging drop vapor diffusion, 100 mM Tris pH 8.0, 16% PEG 3350, 6% tacsimate pH 8.0, 20 °C.
Assay [2] addresses GII.3 huNoV TV24 P protein (GII.3 human norovirus TV24). Nature of the assay: crystal structure; TV24 P protein, native and with A tetrasaccharide; hanging drop vapor diffusion, 9.6% PEG 3350, 160 mM ammonium citrate tribasic pH 7.0, 20 mM tri-sodium citrate pH 5.6, 500 mM 1,6-hexanediol, 20 °C; homodimers in the asymmetric unit.

“GII.11 porNoV VA34 P protein (domain or fragment)”: the stoichiometry N in assay [1] was 2.

As for “GII.3 huNoV TV24 P protein (domain or fragment)”, the stoichiometry N in assay [2] is 2.
